Test results taken from US20230137139A1, “BIOSYNTHESIS OF CANNABINOIDS AND C[…]” (priority 2020, published 2023).

B1: t865721 (protein)
chain: MGNTTSIAGRDCLISALGGNSALAVFPNELLWTADVHEYNLNLPVTPAAITYPETAAQIAGVVKCASDYDYKVQARSGGHSFGNYGLGGADGAVVVDMKHFTQFSMDDETYEAVIGPGTTLNDVDIELYNNGKRAMAHGVCPTIKTGGHFTIGGLGPTARQWGLALDHVEEVEVVLANSSIVRASNTQNQDVFFAVKGAAANFGIVTEFKVRTEPAPGLAVQYSYTFNLGSTAEKAQFVKDWQSFISAKNLTRQFFNNMVIFDGDIILEGLFFGSKEQYDALGLEDHFAPKNPGNILVLTDWLGMVGHALEDTILKLVGNTPTWFYAKSLGFRQDTLIPSAGIDEFFEYIANHTAGTPAWFVTLSLEGGAINDVAEDATAYAHRDVLFWVQLFMVNPVGPISDTTYEFTDGLYDVLARAVPESVGHAYLGCPDPRMEDAQQKYWRTNLPRLQELKEELDPKNTFHHPQGVMPA
B2: t865796 (protein)
chain: MGNTTSIAGRDCLISALGGNSALAVFPNELLWTADVHEYNLNLPVTPAAITYPETAAQIAGVVKCASDYDYKVQARSGGHSFGNYGLGGADGAVVVDMKHFTQFSMDDETYEAVIGPGTTLNDVDIELYNNGKRAMAHGVCPTIKTGGHFTIGGLGPTARQWGLALDHVEEVEVVLANSSIVRASNTQNQDVFFAVKGAAANFGIVTEFKVRTEPAPGLAVQYSYTFNLGSTAEKAQFVKDWQSFISAKNLTRQFYNNMVIFDGDIILEGLFFGSKEQYDALGLEDHFAPKNPGNILVLTDWLGMVGHALEDTILKLVGNTPTWFYAKSLGFRQDTLIPSAGIDEFFEYIANHTAGTPAWFVTLSLEGGAINDVAEDATAYAHRDVLFWVQLFMVNPVGPISDTTYEFTDGLYDVLARAVPESVGHAYLGCPDPRMEDAQQKYWRTNLPRLQELKEEWDPKNTFHHPQGVMPA
modifications: expressed in S. cerevisiae strain
B3: t865733 (protein)
chain: MGNTTSIAGRDCLISALGGNSALAVFPNELLWTADVHEYNLNLPVTPAAITYPETAAQIAGVVKCASDYDYKVQARSGGHSFGNYGLGGADGAVVVDMKHFTQFSMDDETYEAVIGPGTTLNDVDIELYNNGKRAMAHGVCPTIKTGGHFTIGGLGPTARQWGLALDHVEEVEVVLANSSIVRASNTQNQDVFFAVKGAAANFGIVTEFKVRTEPAPGLAVQYSYTFNLGSTAEKAQFVKDWQSFISAKNLTRQFYNNMVIFDGDIILEGLFFGSKEQYDALGLEDHFAPKNPGNILVLTDWLGMVGHALEDTILKLVGNTPTWFYAKSLGFRQDTLIPSAGIDEFFEYIANHTAGTPAWFVTLSLEGGAINDVAEDATAYAHRDVLFWVQLFMVNPTGPISDTTYEFTDGLYDVLARAVPESVGHAYLGCPDPRMEDAQQKYWRTNLPRLQELKEELDPKNTFHHPQGVMPA
B4: t865809 (protein)
chain: MGNTTSIAGRDCLISALGGNSALAVFPNELLWTADVHEYNLNLPVTPAAITYPETAAQIAGVVKCASDYDYKVQARSGGHSFGNYGLGGADGAVVVDMKHFTQFSMDDETYEAVIGPGTTLGDVDIELYNNGKRAMAHGVCPTIKTGGHFTIGGLGPTARQWGLALDHVEEVEVVLANSSIVRASNTQNQDVFFAVKGAAANFGIVTEFKVRTEPAPGLAVQYSYTFNLGSTAEKAQFVKDWQSFISAKNLTRQFYNNMVIFDGDIILEGLFFGSKEQYDALGLEDHFAPKNPGNILVLTDWLGMVGHALEDTILKLVGNTPTWFYAKSLGFRQDTLIPSAGIDEFFEYIANHTAGTPAWFVTLSLEGGAINDVAEDATAYAHRDVLFWVQLFMVNPVGPISDTTYEFTDGLYDVLARAVPESVGHAYLGCPDPRMEDAQQKYWRTNLPRLQELKEELDPKNTFHHPQGVMPA
modifications: expressed in S. cerevisiae strain
B5: t865814 (protein)
chain: MGNTTSIAGRDCLISALGGNSALAVFPNELLWTADVHEYNLNLPVTPAAITYPETAAQIAGVVKCASDYDYKVQARSGGHSFGNYGLGGADGAVVVDMKHFTQFSMDDETYEAVIGPGTTLNDVDIELYNNGKRAMAHGVCPTIKTGGHFTIGGLGPTARQWGLALDHVEEVEVVLANSSIVRASNTQNQDVFFAVKGAAANFGIVTEFKVRTEPAPGLAVQYSYTFNLGSTAEKAQFVKDWQSFISAKNLTRQFYNNMVIFDGDIILEGLFFGSKEQYNALGLEDHFAPKNPGNILVLTDWLGMVGHALEDTILKLVGNTPTWFYAKSLGFRQDTLIPSAGIDEFFEYIANHTAGTPAWFVTLSLEGGAINDVAEDATAYAHRDVLFWVQLFMVNPVGPISDTTYEFTDGLYDVLARAVPESVGHAYLGCPDPRMEDAQQKYWRTNLPRLQELKEELDPKNTFHHPQGVMPA
modifications: expressed in S. cerevisiae strain

What was measured:
[1] = system: CBCA, THCA, and CBDA production; assay: In vivo TS activity assay, Example 2 protein engineering of A. niger CBCAS, cultures fed olivetolic acid; type: cell-based, S. cerevisiae; settings: for Mean CBCA / Mean CBDA / Mean THCA: secondary screen, olivetolic acid (Table 8); for % CBCA / % CBDA / % THCA: share of terminal cannabinoid product profile
How it was run: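 CBCA, THCA and CBDA were measured by LC-MS in methanol extracts of yeast cultures expressing mutant A. niger CBCAS. Cultures were induced at 20 °C with galactose and fed 1 mM olivetolic acid daily for 4 days, then buffered with 100 mM sodium citrate pH 5.5. Secondary screen: quadruplicates fed 1 mM olivetolic or divaric acid.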

[2] = system: CBCVA, THCVA, and CBDVA production; assay: In vivo TS activity assay, Example 2 protein engineering of A. niger CBCAS, cultures fed divaric acid; type: cell-based, S. cerevisiae; settings: fed divaric acid; for Mean CBCVA / Mean CBDVA / Mean THCVA: S. cerevisiae strains expressing A. niger CBCAS mutants, secondary screen; for % CBCVA / % CBDVA / % THCVA: share of terminal cannabinoid product profile
How it was run: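 Quantification by LC-MS of methanol-extracted production cultures, strains in quadruplicate. Yeast carrying mutant A. niger CBCAS (MFalpha2 N-terminal and HDEL C-terminal signal peptides) were induced 4 days at 20 °C in YEP+4% galactose fed 1 mM divaric acid, re-dosed every 24 h with 2% galactose and 1 mM divaric acid, after 2 days of dextrose preculture at 30 °C; 100 mM citrate pH 5.5 was then added for 2 more days.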

Row | Molecule | Mean CBCA [1] [µg/L] | Mean CBDA [1] [µg/L] | Mean THCA [1] [µg/L] | % CBCA [1] [%] | % CBDA [1] [%] | % THCA [1] [%] | Mean CBCVA [2] [µg/L] | Mean CBDVA [2] [µg/L] | Mean THCVA [2] [µg/L] | % CBCVA [2] [%] | % CBDVA [2] [%] | % THCVA [2] [%]
1 | B1 | 21099.41 | 5260.35 | 1396.80 | 76.02 | 18.95 | 5.03 | 3281.34 | 0.00 | 1482.54 | 68.88 | 0.00 | 31.12
2 | B2 | 19975.57 | 6427.56 | 1436.09 | 71.75 | 23.09 | 5.16 | 2570.89 | 0.00 | 1344.71 | 65.66 | 0.00 | 34.34
3 | B3 | 18070.99 | 6320.33 | 1307.71 | 70.32 | 24.59 | 5.09 | 2023.09 | 0.00 | 1202.96 | 62.71 | 0.00 | 37.29
4 | B4 | 20413.40 | 6738.75 | 1390.36 | 71.52 | 23.61 | 4.87 | 3093.25 | 0.00 | 1662.32 | 65.04 | 0.00 | 34.96
5 | B5 | 20192.93 | 6751.44 | 1367.48 | 71.32 | 23.85 | 4.83 | 3290.24 | 0.00 | 1468.01 | 69.15 | 0.00 | 30.85
